Experimental data from the supplement of paper PMC9112550, “Optimization of the antimicrobial peptide Bac7 by deep mutational scanning” (BMC Biology, 2022).

tested on: Escherichia coli TOP10; test: shrunken log2 fold change of peptide-encoding DNA abundance (4.5 h post-induction vs induction); higher = less antimicrobial activity (less host growth inhibition); conditions: time post-induction: 4.5 h; library: site-saturation at positions 5, 18, 19, 20
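Also: peptides expressed intracellularly from a pBAD plasmid library in pooled LB shake-flask culture, induced with 0.3% L-arabinose, DNA abundance read by NGS, three biological replicates, DESeq2 with apeglm shrinkage.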

Sequence	shrunken log2 fold change
RRIRMRPPRLPRPRPRPMMYPRP	-0.0758
RRIRMRPPRLPRPRPRPMPEPRP	0.627
RRIRMRPPRLPRPRPRPMQHPRP	0.579
RRIRMRPPRLPRPRPRPMVWPRP	1.09
RRIRMRPPRLPRPRPRPMWIPRP	-0.217
RRIRMRPPRLPRPRPRPMYMPRP	0.0751
RRIRMRPPRLPRPRPRPMYPPRP	-0.00194
RRIRMRPPRLPRPRPRPMYTPRP	-0.71
RRIRMRPPRLPRPRPRPNADPRP	2.51
RRIRMRPPRLPRPRPRPNAVPRP	0.0414
RRIRMRPPRLPRPRPRPNDFPRP	0.0282
RRIRMRPPRLPRPRPRPNERPRP	0.69
RRIRMRPPRLPRPRPRPNESPRP	0.923
RRIRMRPPRLPRPRPRPNFIPRP	-0.371
RRIRMRPPRLPRPRPRPNFVPRP	0.0215
RRIRMRPPRLPRPRPRPNGEPRP	0.278
RRIRMRPPRLPRPRPRPNGKPRP	0.321
RRIRMRPPRLPRPRPRPNGVPRP	0.194
RRIRMRPPRLPRPRPRPNICPRP	0.021
RRIRMRPPRLPRPRPRPNIKPRP	-0.266
RRIRMRPPRLPRPRPRPNKDPRP	0.0301
RRIRMRPPRLPRPRPRPNKFPRP	0.0721
RRIRMRPPRLPRPRPRPNKKPRP	-0.0238
RRIRMRPPRLPRPRPRPNLMPRP	-0.126
RRIRMRPPRLPRPRPRPNMIPRP	-0.489

Sequence	shrunken log2 fold change
RRIRMRPPRLPRPRPRPNMRPRP	1.6
RRIRMRPPRLPRPRPRPNMYPRP	0.0412
RRIRMRPPRLPRPRPRPNNDPRP	-0.0943
RRIRMRPPRLPRPRPRPNPTPRP	0.849
RRIRMRPPRLPRPRPRPNQWPRP	2.38
RRIRMRPPRLPRPRPRPNRLPRP	0.0386
RRIRMRPPRLPRPRPRPNSCPRP	-0.0381
RRIRMRPPRLPRPRPRPNSLPRP	-0.0986
RRIRMRPPRLPRPRPRPNSTPRP	0.0221
RRIRMRPPRLPRPRPRPNTLPRP	-0.507
RRIRMRPPRLPRPRPRPNTYPRP	-0.0596
RRIRMRPPRLPRPRPRPNWMPRP	-0.0131
RRIRMRPPRLPRPRPRPPCGPRP	0.788
RRIRMRPPRLPRPRPRPPDRPRP	1.26
RRIRMRPPRLPRPRPRPPDSPRP	0.198
RRIRMRPPRLPRPRPRPPELPRP	0.372
RRIRMRPPRLPRPRPRPPFLPRP	0.305
RRIRMRPPRLPRPRPRPPHGPRP	1.06
RRIRMRPPRLPRPRPRPPIGPRP	0.161
RRIRMRPPRLPRPRPRPPLNPRP	0.584
RRIRMRPPRLPRPRPRPPLPPRP	0.879
RRIRMRPPRLPRPRPRPPNVPRP	0.301
RRIRMRPPRLPRPRPRPPPKPRP	2.03
RRIRMRPPRLPRPRPRPPPQPRP	1.79
RRIRMRPPRLPRPRPRPPRIPRP	0.226

Sequence	shrunken log2 fold change
RRIRMRPPRLPRPRPRPPSMPRP	0.761
RRIRMRPPRLPRPRPRPPWGPRP	0.686
RRIRMRPPRLPRPRPRPPWWPRP	1.01
RRIRMRPPRLPRPRPRPPYFPRP	0.104
RRIRMRPPRLPRPRPRPQAIPRP	-0.00149
RRIRMRPPRLPRPRPRPQAKPRP	0.0296
RRIRMRPPRLPRPRPRPQARPRP	0.575
RRIRMRPPRLPRPRPRPQAVPRP	0.442
RRIRMRPPRLPRPRPRPQCCPRP	0.00357
RRIRMRPPRLPRPRPRPQCEPRP	-0.00192
RRIRMRPPRLPRPRPRPQDPPRP	0.786
RRIRMRPPRLPRPRPRPQFPPRP	0.16
RRIRMRPPRLPRPRPRPQGPPRP	0.246
RRIRMRPPRLPRPRPRPQHLPRP	-0.344
RRIRMRPPRLPRPRPRPQHMPRP	-0.355
RRIRMRPPRLPRPRPRPQIKPRP	-0.0128
RRIRMRPPRLPRPRPRPQKLPRP	0.0146
RRIRMRPPRLPRPRPRPQMDPRP	0.224
RRIRMRPPRLPRPRPRPQMIPRP	-0.0999
RRIRMRPPRLPRPRPRPQMKPRP	0.518
RRIRMRPPRLPRPRPRPQMVPRP	-0.243
RRIRMRPPRLPRPRPRPQNDPRP	-0.179
RRIRMRPPRLPRPRPRPQQIPRP	0.0607
RRIRMRPPRLPRPRPRPQTDPRP	0.19
RRIRMRPPRLPRPRPRPQTIPRP	0.414
